Laboratory results from patent US20250129165A1 (IMCHECK THERAPEUTICS, published 2025).

Legend:
[1] = biological target: human BTN3A1 antigen (Sino Biological cat. no. 15973-H08H) (human, UniProt O00481 30-254); test: SPR, Biacore T200 multi-cycle kinetics; antibody captured on Protein A, BTN3A1 as analyte
[2] = biological target: T1, cynomolgus BTN3A as expressed on cynomolgus PBMCs (cynomolgus); test: flow cytometry on cynomolgus PBMCs
T1 construct: whole, on cells; also called Cyno PBMC

human BTN3A1 antigen (Sino Biological cat. no. 15973-H08H), sequence (O00481 30-254 limits assumed): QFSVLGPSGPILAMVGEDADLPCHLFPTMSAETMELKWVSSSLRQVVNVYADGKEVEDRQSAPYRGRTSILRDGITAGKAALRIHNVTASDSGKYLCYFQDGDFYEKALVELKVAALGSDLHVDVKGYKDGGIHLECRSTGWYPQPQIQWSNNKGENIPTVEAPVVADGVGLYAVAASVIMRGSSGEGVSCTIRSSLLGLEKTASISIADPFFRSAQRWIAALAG

Kd [1]: 0.319 nM
EC50 [2]: 5.74 µg/mL
B1: mAb 3, humanized form of mAb 20.1 (antibody, human IgG1, kappa, V domains shown)
VH: QVQLVQSGAEVKKPGASVKVSCKASGYTFTRYYLYWVKQRPGQGLEWIGEINPNNGGTKFNEKFKSRATMTVDKSTRTTYMELSSLRSEDTAVYYCSREDDYDGTPDAMDYWGQGTLVTVSS
VL: DIQMTQSPSSLSASVGDRVTITCHASQNINLWLSWYQQKPGKAPKLLIYRASNLHTGVPSRFSGSGSATDFTFTISSLQPEDIATYYCQQGHSYPYTFGGGTKVDIKR
notes: also called 20.1 Humanized mAb 3; humanized mAb 20.1
